From US20260242419A1, “A CYCLIC PEPTIDE FOR TRAPPING INTERLEUKIN-1 BETA” (Merck Sharp & Dohme LLC, priority 2023, published 2026)
Starred links: 1 amine or outer side, 2 acyl side, 3 side chain; linkers in the order of their positions; H or OH if unused. Non-standard residues stand in square brackets, D forms with d. PyrimAla4AcPip = (2S)-3-[2-(4-acetylpiperazin-1-yl)pyrimidin-5-yl]-2-amino-propanoic acid, CC(=O)N1CCN(c2ncc(C[C@H](N[*:1])C(=O)[*:2])cn2)CC1; 3AzaPhe4AcPip = (2S)-3-[6-(4-acetylpiperazin-1-yl)-3-pyridyl]-2-amino-propanoic acid, CC(=O)N1CCN(c2ccc(C[C@H](N[*:1])C(=O)[*:2])cn2)CC1; Phe(4-(5-CO2H-2-pyrimidyl)) = N[C@@H](Cc1ccc(-c2ncc(C(=O)O)cn2)cc1)C(=O)O; Phe(4-(4-Ac-piperazinyl)) = CC(=O)N1CCN(c2ccc(C[C@H](N)C(=O)O)cc2)CC1; dPro(4R-(4-pyridylmethyl)) = O=C(O)[C@H]1C[C@@H](Cc2ccncc2)CN1; Trp(βS-Me,4-F) = C[C@@H](c1c[nH]c2cccc(F)c12)[C@H](N)C(=O)O; Bip(4'-COOH) = N[C@@H](Cc1ccc(-c2ccc(C(=O)O)cc2)cc1)C(=O)O; dPro(4R-Bzl(4-F)) = O=C(O)[C@H]1C[C@@H](Cc2ccc(F)cc2)CN1; Ala(pyrimidin-5-yl) = N[C@@H](Cc1cncnc1)C(=O)O; Phe(4-COOH) = N[C@@H](Cc1ccc(C(=O)O)cc1)C(=O)O; Pro(cis-4-F) = O=C(O)[C@@H]1C[C@H](F)CN1; 2Pal = N[C@@H](Cc1ccccn1)C(=O)O; 3Pal = N[C@@H](Cc1cccnc1)C(=O)O; 4Pal = N[C@@H](Cc1ccncc1)C(=O)O; Dab = NCC[C@H](N)C(=O)O; Aib = CC(C)(N)C(=O)O

B1: SEQ ID NO: 4 (peptide)
peptide: cyclo([Bip(4'-COOH)][4Pal][Phe(4-COOH)]G[Pro(cis-4-F)][Trp(βS-Me,4-F)][Aib]EW[Aib][Ala(pyrimidin-5-yl)]Q[Dab]G[dPro(4R-Bzl(4-F))])
SMILES: C[C@@H](c1c[nH]c2cccc(F)c12)[C@@H]1NC(=O)[C@@H]2C[C@H](F)CN2C(=O)CNC(=O)[C@H](Cc2ccc(C(=O)O)cc2)NC(=O)[C@H](Cc2ccncc2)NC(=O)[C@H](Cc2ccc(-c3ccc(C(=O)O)cc3)cc2)NC(=O)[C@H]2C[C@@H](Cc3ccc(F)cc3)CN2C(=O)CNC(=O)[C@H](CCN)NC(=O)[C@H](CCC(N)=O)NC(=O)[C@H](Cc2cncnc2)NC(=O)C(C)(C)NC(=O)[C@H](Cc2c[nH]c3ccccc23)NC(=O)[C@H](CCC(=O)O)NC(=O)C(C)(C)NC1=O
B2: SEQ ID NO: 32 (peptide)
peptide: cyclo([Bip(4'-COOH)][4Pal][Phe(4-COOH)]G[Pro(cis-4-F)][Trp(βS-Me,4-F)][Aib]EW[Aib]RQSG[dPro(4R-Bzl(4-F))])
SMILES: C[C@@H](c1c[nH]c2cccc(F)c12)[C@@H]1NC(=O)[C@@H]2C[C@H](F)CN2C(=O)CNC(=O)[C@H](Cc2ccc(C(=O)O)cc2)NC(=O)[C@H](Cc2ccncc2)NC(=O)[C@H](Cc2ccc(-c3ccc(C(=O)O)cc3)cc2)NC(=O)[C@H]2C[C@@H](Cc3ccc(F)cc3)CN2C(=O)CNC(=O)[C@H](CO)NC(=O)[C@H](CCC(N)=O)NC(=O)[C@H](CCCNC(=N)N)NC(=O)C(C)(C)NC(=O)[C@H](Cc2c[nH]c3ccccc23)NC(=O)[C@H](CCC(=O)O)NC(=O)C(C)(C)NC1=O
B3: SEQ ID NO: 40 (peptide)
peptide: cyclo([PyrimAla4AcPip][4Pal][Phe(4-COOH)]G[Pro(cis-4-F)][Trp(βS-Me,4-F)][Aib]EW[Aib][Ala(pyrimidin-5-yl)]Q[Dab]G[dPro(4R-Bzl(4-F))])
SMILES: CC(=O)N1CCN(c2ncc(C[C@@H]3NC(=O)[C@H]4C[C@@H](Cc5ccc(F)cc5)CN4C(=O)CNC(=O)[C@H](CCN)NC(=O)[C@H](CCC(N)=O)NC(=O)[C@H](Cc4cncnc4)NC(=O)C(C)(C)NC(=O)[C@H](Cc4c[nH]c5ccccc45)NC(=O)[C@H](CCC(=O)O)NC(=O)C(C)(C)NC(=O)[C@H]([C@@H](C)c4c[nH]c5cccc(F)c45)NC(=O)[C@@H]4C[C@H](F)CN4C(=O)CNC(=O)[C@H](Cc4ccc(C(=O)O)cc4)NC(=O)[C@H](Cc4ccncc4)NC3=O)cn2)CC1
B4: SEQ ID NO: 34 (peptide)
peptide: cyclo([Bip(4'-COOH)][4Pal][Phe(4-COOH)]G[Pro(cis-4-F)][Trp(βS-Me,4-F)][Aib]EW[Aib][3Pal]QSG[dPro(4R-Bzl(4-F))])
SMILES: C[C@@H](c1c[nH]c2cccc(F)c12)[C@@H]1NC(=O)[C@@H]2C[C@H](F)CN2C(=O)CNC(=O)[C@H](Cc2ccc(C(=O)O)cc2)NC(=O)[C@H](Cc2ccncc2)NC(=O)[C@H](Cc2ccc(-c3ccc(C(=O)O)cc3)cc2)NC(=O)[C@H]2C[C@@H](Cc3ccc(F)cc3)CN2C(=O)CNC(=O)[C@H](CO)NC(=O)[C@H](CCC(N)=O)NC(=O)[C@H](Cc2cccnc2)NC(=O)C(C)(C)NC(=O)[C@H](Cc2c[nH]c3ccccc23)NC(=O)[C@H](CCC(=O)O)NC(=O)C(C)(C)NC1=O
B5: SEQ ID NO: 41 (peptide)
peptide: cyclo([Bip(4'-COOH)][4Pal][Phe(4-COOH)]G[Pro(cis-4-F)][Trp(βS-Me,4-F)][Aib]AW[Aib][Ala(pyrimidin-5-yl)]Q[Dab]G[dPro(4R-(4-pyridylmethyl))])
SMILES: C[C@@H]1NC(=O)C(C)(C)NC(=O)[C@H]([C@@H](C)c2c[nH]c3cccc(F)c23)NC(=O)[C@@H]2C[C@H](F)CN2C(=O)CNC(=O)[C@H](Cc2ccc(C(=O)O)cc2)NC(=O)[C@H](Cc2ccncc2)NC(=O)[C@H](Cc2ccc(-c3ccc(C(=O)O)cc3)cc2)NC(=O)[C@H]2C[C@@H](Cc3ccncc3)CN2C(=O)CNC(=O)[C@H](CCN)NC(=O)[C@H](CCC(N)=O)NC(=O)[C@H](Cc2cncnc2)NC(=O)C(C)(C)NC(=O)[C@H](Cc2c[nH]c3ccccc23)NC1=O
B6: SEQ ID NO: 38 (peptide)
peptide: cyclo([Phe(4-(5-CO2H-2-pyrimidyl))][4Pal][Phe(4-COOH)]G[Pro(cis-4-F)][Trp(βS-Me,4-F)][Aib]EW[Aib][Ala(pyrimidin-5-yl)]Q[Dab]G[dPro(4R-Bzl(4-F))])
SMILES: C[C@@H](c1c[nH]c2cccc(F)c12)[C@@H]1NC(=O)[C@@H]2C[C@H](F)CN2C(=O)CNC(=O)[C@H](Cc2ccc(C(=O)O)cc2)NC(=O)[C@H](Cc2ccncc2)NC(=O)[C@H](Cc2ccc(-c3ncc(C(=O)O)cn3)cc2)NC(=O)[C@H]2C[C@@H](Cc3ccc(F)cc3)CN2C(=O)CNC(=O)[C@H](CCN)NC(=O)[C@H](CCC(N)=O)NC(=O)[C@H](Cc2cncnc2)NC(=O)C(C)(C)NC(=O)[C@H](Cc2c[nH]c3ccccc23)NC(=O)[C@H](CCC(=O)O)NC(=O)C(C)(C)NC1=O
B7: SEQ ID NO: 37 (peptide)
peptide: cyclo([Phe(4-(4-Ac-piperazinyl))][4Pal][Phe(4-COOH)]G[Pro(cis-4-F)][Trp(βS-Me,4-F)][Aib]EW[Aib][Ala(pyrimidin-5-yl)]Q[Dab]G[dPro(4R-Bzl(4-F))])
SMILES: CC(=O)N1CCN(c2ccc(C[C@@H]3NC(=O)[C@H]4C[C@@H](Cc5ccc(F)cc5)CN4C(=O)CNC(=O)[C@H](CCN)NC(=O)[C@H](CCC(N)=O)NC(=O)[C@H](Cc4cncnc4)NC(=O)C(C)(C)NC(=O)[C@H](Cc4c[nH]c5ccccc45)NC(=O)[C@H](CCC(=O)O)NC(=O)C(C)(C)NC(=O)[C@H]([C@@H](C)c4c[nH]c5cccc(F)c45)NC(=O)[C@@H]4C[C@H](F)CN4C(=O)CNC(=O)[C@H](Cc4ccc(C(=O)O)cc4)NC(=O)[C@H](Cc4ccncc4)NC3=O)cc2)CC1
B8: SEQ ID NO: 33 (peptide)
peptide: cyclo([Bip(4'-COOH)][4Pal][Phe(4-COOH)]G[Pro(cis-4-F)][Trp(βS-Me,4-F)][Aib]EW[Aib]RQ[Dab]G[dPro(4R-Bzl(4-F))])
SMILES: C[C@@H](c1c[nH]c2cccc(F)c12)[C@@H]1NC(=O)[C@@H]2C[C@H](F)CN2C(=O)CNC(=O)[C@H](Cc2ccc(C(=O)O)cc2)NC(=O)[C@H](Cc2ccncc2)NC(=O)[C@H](Cc2ccc(-c3ccc(C(=O)O)cc3)cc2)NC(=O)[C@H]2C[C@@H](Cc3ccc(F)cc3)CN2C(=O)CNC(=O)[C@H](CCN)NC(=O)[C@H](CCC(N)=O)NC(=O)[C@H](CCCNC(=N)N)NC(=O)C(C)(C)NC(=O)[C@H](Cc2c[nH]c3ccccc23)NC(=O)[C@H](CCC(=O)O)NC(=O)C(C)(C)NC1=O
B9: SEQ ID NO: 39 (peptide)
peptide: cyclo([3AzaPhe4AcPip][4Pal][Phe(4-COOH)]G[Pro(cis-4-F)][Trp(βS-Me,4-F)][Aib]EW[Aib][Ala(pyrimidin-5-yl)]Q[Dab]G[dPro(4R-Bzl(4-F))])
SMILES: CC(=O)N1CCN(c2ccc(C[C@@H]3NC(=O)[C@H]4C[C@@H](Cc5ccc(F)cc5)CN4C(=O)CNC(=O)[C@H](CCN)NC(=O)[C@H](CCC(N)=O)NC(=O)[C@H](Cc4cncnc4)NC(=O)C(C)(C)NC(=O)[C@H](Cc4c[nH]c5ccccc45)NC(=O)[C@H](CCC(=O)O)NC(=O)C(C)(C)NC(=O)[C@H]([C@@H](C)c4c[nH]c5cccc(F)c45)NC(=O)[C@@H]4C[C@H](F)CN4C(=O)CNC(=O)[C@H](Cc4ccc(C(=O)O)cc4)NC(=O)[C@H](Cc4ccncc4)NC3=O)cn2)CC1
B10: SEQ ID NO: 35 (peptide)
peptide: cyclo([Bip(4'-COOH)][4Pal][Phe(4-COOH)]G[Pro(cis-4-F)][Trp(βS-Me,4-F)][Aib]EW[Aib]FQRG[dPro(4R-Bzl(4-F))])
SMILES: C[C@@H](c1c[nH]c2cccc(F)c12)[C@@H]1NC(=O)[C@@H]2C[C@H](F)CN2C(=O)CNC(=O)[C@H](Cc2ccc(C(=O)O)cc2)NC(=O)[C@H](Cc2ccncc2)NC(=O)[C@H](Cc2ccc(-c3ccc(C(=O)O)cc3)cc2)NC(=O)[C@H]2C[C@@H](Cc3ccc(F)cc3)CN2C(=O)CNC(=O)[C@H](CCCNC(=N)N)NC(=O)[C@H](CCC(N)=O)NC(=O)[C@H](Cc2ccccc2)NC(=O)C(C)(C)NC(=O)[C@H](Cc2c[nH]c3ccccc23)NC(=O)[C@H](CCC(=O)O)NC(=O)C(C)(C)NC1=O
B11: SEQ ID NO: 36 (peptide)
peptide: cyclo([Bip(4'-COOH)][4Pal][Phe(4-COOH)]G[Pro(cis-4-F)][Trp(βS-Me,4-F)][Aib]EW[Aib][2Pal]QSG[dPro(4R-Bzl(4-F))])
SMILES: C[C@@H](c1c[nH]c2cccc(F)c12)[C@@H]1NC(=O)[C@@H]2C[C@H](F)CN2C(=O)CNC(=O)[C@H](Cc2ccc(C(=O)O)cc2)NC(=O)[C@H](Cc2ccncc2)NC(=O)[C@H](Cc2ccc(-c3ccc(C(=O)O)cc3)cc2)NC(=O)[C@H]2C[C@@H](Cc3ccc(F)cc3)CN2C(=O)CNC(=O)[C@H](CO)NC(=O)[C@H](CCC(N)=O)NC(=O)[C@H](Cc2ccccn2)NC(=O)C(C)(C)NC(=O)[C@H](Cc2c[nH]c3ccccc23)NC(=O)[C@H](CCC(=O)O)NC(=O)C(C)(C)NC1=O

Target: Recombinant human IL-1β (BioLegend 579404) (human, UniProt P01584 117-269)
Test: cell-based or functional assay

Binder	MRC5 IC50 [nM]
B1	0.031
B2	0.049
B3	0.048
B4	0.032
B5	0.029
B6	0.041
B7	0.033
B8	0.033
cyclo([Bip(4'-COOH)][4Pal][Phe(4-COOH)]G[Pro(cis-4-F)][Trp(βS-Me,4-F)][Aib]SW[Aib][Ala(pyrimidin-5-yl)]Q[Dab]G[dPro(4R-(4-pyridylmethyl))]) [SEQ ID NO: 42]	0.021
B9	0.063
B10	0.049
B11	0.054
